Assay: yeast display, Sf9 membrane polyspecificity reagent, FACS + sequencing; frameworks hold sequencing errors
Outline: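 A synthetic nanobody library was expressed on Saccharomyces cerevisiae BJ5465 by galactose induction for 36–48 hours. The library was stained for 1 hour at 4 °C with 10% biotinylated, detergent-solubilized Sf9 membrane reagent and enriched with streptavidin microbeads before FACS. Low and high (top ~1%) gates were set on anti-HA fluorescence for expression and streptavidin fluorescence for reagent binding, and each polyreactivity label reflects the gate of origin.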

Row | Sequence | polyreactivity (PSR sort gate)
1 | QVQLVESGGGLVQAGGSLRLSCAASGRIFWRYAMGWYRQAPGKERELVAAITGRTGSTNYADSVKGRFTISRDNANNTVYLQMNSLKREDTAVYYCAAAHHRWTGLFPSGYEFDYWGQGTQVTVSS | low polyreactivity
2 | QVQLVESGGGLVQAGGSLRLSCAASGSTFIRYAMGWYRQAPGKERELVAAIRRTGASTYYADSVKGRFTISRDNAKNTVYLQMNSLKPEDTAVYYCAARYSIWSWNGLDYWGQGTQVTVSS | high polyreactivity
3 | QVQLVESGGGLVQAGGSLRLSCAASGSTFRYYAMGWYRQAPGKERELVAAITYRATSTYYADSVEGRFTISRDNAKNTVYLQMNSLKPEYTAVYYCAAYSTYSRSDYWGQGTQVTVSS | high polyreactivity
4 | QVQLVESGGGLGQAGGSLRLSCAASGRIFGGYTMGWYRQAPGKEREFVDTISRSSGSTYYADSVKGRFTISRDHAKNTVYLQMNSLKPEDTAVYYCAAVYLYATGYDYWGQCTQVTVSS | high polyreactivity
5 | QVQLVESGGGLVQAGGSLRLSCAASGSIFWGYAMGWYRQAPGKERELVAVITWSVGRTYYADSVKGRFTISRDNAKNTVYLQMNSLKPEDTAVYYCNAKSWYGGSYYRYDYWGQGTQVTVSS | low polyreactivity
6 | QVQLVESGGGLVQAGGSLRLSCAASGNTFWSYAMGWYRQAPGNERELVAAITQRGGSTYYADSVKGRFTISRDNAKNTVYLQMNSLKPEDTAVYYCAADTSYKGDYWGQGTQVTVSS | high polyreactivity
7 | QVQLVESGGGLVQAGGSLRLSCAASGRTFSYYTMGWYRQAPGKERELVARISNRGTNTYYADSVKGRFTISRDNAKNTVYLQMNSLKPEDTAVYYCNTEDFFNVPEMDSWGQGTQVTVSS | low polyreactivity
8 | QVQLVESGGGLVQAGGSLRLSCAASGSILAGNVMGWYRQAPGKERELVAAITGSGGITYYADSVKGRFTISRDNAKNTVYLQMNSLKPEDTAVYYCNAVPDTRSGELDYWGQGTQVTVSS | low polyreactivity
9 | QVQLVESGGGLVQAGGSLRLSCAASGRTFYANAMVWYRQAPGKERELVAGISYSGGNTYYADSVKGRFTISRDNAKNTVYIQMNSLKPEDTAVYYCAAATVWEYWTYEDWGQGTQVTVSS | low polyreactivity
10 | QVQLVESGGGLVQAGGSLRLSCAASGFILRYYAMGWYRQPPGKERELVAAISWSGGSTYYADSVMGRFTISRDNAKNTVYLQMNSLKPEDTAVYYCAADRYAILFYAEDYWGQGTQVTVSS | low polyreactivity
11 | QFQLVESGRGLVQAGGSLRLSCAASGSTILYYAMGWYRQAPGTERELVAAISSSDGSTYYADSVKGRFTISRDNAKYTVYLQMNSLKPEDTAVYYCNADFYWGYNYWGQGTQVTVSS | high polyreactivity
12 | QVQLVESGGGLVQAGGSLRLSCAASRYIFAHYAMGWYRQAPGKERELVAAISTRGGSTYYADSVKGRFTISRDNAKNTVYLQMNSLKPEDTAVYYCNNYRYAGITAEFYYWGQGTQVTVSS | high polyreactivity
13 | QFQLEYSGGGLVQAGGSLRLSFASSGSTLARNAMGWYRQATVKERELVPSINGRTTRTYYADSVKGRFTISRDNAKNTVYLQMNSLKPEDTAVYYCAADPPGYVYGKRYYWGQGTQVTVSS | high polyreactivity
14 | QDQLVESGGGLVQAGGSLRLSCAASGRTFTRYAMGWYRPAPGKERELVAAISKRGGSTYYADSVKGRFTISRDNAKNTVYLQMNSLKPEDTAVYYCAADQPYHDSEYWGQGTQVTVSS | high polyreactivity
15 | QVQLVESGGGLVQAGGSLRFICAASGFSLYHYAMGWYRQAPGKERELVAAITTSGSRTYYADSVKGRFTISRDTAKITVYLQMNSLKPEDTAVYYCNAVASSTEYDYWGQGTQVTVSS | high polyreactivity
16 | QVQLVESGGGLVQAGGSLRLSCAASGRTFGPYVMGWYRQAPGKERELVAAISFSGGSTYYADSVKGRFTISRDNAKNTVYLQMNSLKPEDTAVYYCAARAVGGVRGYRYDYWGQGTQVTVSS | high polyreactivity
17 | QVQLVESGGGLVQAGGSLRLSCAASGSIFYRYAMGWSRPAPRKERELVAAISRSGGRTYYADSVKGRFTISRDISKKTVYLQMYSLKAEDTAVYYCADESNVGTDLGGDSWGQGTQVTVSS | high polyreactivity
18 | QVQLVESGGGLVQAGGSLRLSCAASGRTFAIYAMGWYRQAPGKEREFVAAISWSGCSTYADSVKGRFTISRDNAKNTVYLQMNSLKPEDTAVYYCAKTILYDCDYWGQGTQVTVSS | low polyreactivity
19 | QDQLVESVGGLVQAGGSLRLSCAASGRTFGRYPMGSYIEAPGKEREMVAAIRSGGSTYYADSVKGRFTISRDNAKNTVYLLMNSLKPEDTAVYYCAADIDRHLTGFAYYRLDYWGQGTQVTVSS | low polyreactivity
20 | QVHLVESGGGLVQAGGSLRLSCAASGSTSRTYAMGWNRPQPGKERELVAAISSSGGRTTYADSVKGRFTFSRDNAKNTVSLQMNSLKPEDTAVYYCNARTYSYRGYNYWGQGTQVTVSS | high polyreactivity
21 | QVQLVESGGGLVQAGGSLRLSCAASGSIFRSYAMGWYSQAPGKERELVASISRRGGSTYYADSVKGRFTMSRDHAKNTVYLQMNSLKPEDTAVYYCAAVRYNSRVSTTPSEMYYWGQGTQVTVSS | low polyreactivity
22 | QVQLVESGGGLVQAGGSLRISCAASGLTFRLYVMGWYRQAPGKERELVATISRSGGSTHYADSVKGRFTISRDNAKNTVYLQMNSLKPEDTAVYDCAARLFYFGSDFDYWGQGTQVTVSS | high polyreactivity

Row | Sequence | polyreactivity (PSR sort gate)
23 | QVQLVESGGGLFQAGGSLRLSCAASGLIFSSNAMGWYRQAPGKERELVATISWSGGSTYYADSVKGRFTISRDKAKNNVYLQMNSQKPEDTAVYYCAAAQRWSFLHYYYYWGQGTQVTVSS | high polyreactivity
24 | QVQLVESGGGLVQAGGSLRLSCAASGSIFNTIALGWYRQAPGKESELVASISSDGGTNYADSLKGRFTISRDNAKNTVYLQMNRLKPEDTAVYACATTQEYSGQRTPGYDYWGQVTQVTVSS | low polyreactivity
25 | QVQLVESGGGLVQAGGSLRLTCAASGYIFRLNAMGWYRQAPGKEMELVAGISPGGRTNYADSVKGRFTISRDNAKNTVNLQMNSLKPEDTAVYYCAAAWNTAYWVGSDSLGGGYWGLGTQVTVSS | low polyreactivity
26 | QVHLVESGGGLVQAGGSLRLSCAASGLIFARNAMGWYSQAPGKEREMVAAISRSGSTNYADSVKGRFTISRDNAKNTVYLQMNSLKPEDTAVYYCAADHARYLGFPRVDYWGQGTQVTVSS | low polyreactivity
27 | QVQLVESGGGLVQAGGSLRLSCAASGSIFFSYAMGWYRQAPGKERELVAGINWSGGSTYADSVKGRFTISRDNAKNPVYLQMNSLTPEDTAVYYCAAKYYSERSRYHYWGQGTQVTVSS | low polyreactivity
28 | QVQLVESGGGLVQAGGSLRLSCAASGSTFFGNAMGWYRQAPGKERELVAVITKGGGSTYYADSVKGRFTISRDNAKNTVYLQMNSLKPEDTAVYYCAKTYTSGYHRRYDYWGQGTQVTVSS | low polyreactivity
29 | QVQLVESVGGLVQAGGSLRLSCAASGRTFRAYSMGSYRQAPGKETELVAAIRSGTSTNYADSVKGRFTISRDNAKNTVYLQMNSLKPEDTAVYYCAARWWYYIGGRDYWGHGTQVTVSS | high polyreactivity
30 | QVQLVESGGGLVQAGGSLRLSCAASGGTFAQYVMGWYRQAPGKERELVAAISRTGGRTYYADSVKGRFTISRDNAKNTVYLQMNSLKPEDTAVYYCARVYTSYGTPWTNYDYWGQGTQVTVSS | high polyreactivity
31 | QVQLVESGGGLVQAGGSLRLSCAASGFTFSYNAMGWYRQAPGKERELVAAISSGGRTYYADSVKGRFTISRDNAKNTVYLQINSLKPEDTAVYYCNAEPDQYTLRSITNDEDYWGQGTQVTVSS | low polyreactivity
32 | QVQLVESGGGLVQAGGSLRLSCAASGRIFQYYDMGWYRQAPGKERELVATITSGGSTNYADSVKGRFTISRDNAKNTVYLQMNSLKPEDTAVYYCAALAYTASDYQPYDATEYNYWGQGTQVTVSS | low polyreactivity
33 | QVQLVESGGGLVQAGGSLRLSCAASGSTLASNAKGWYRQAPGKERELVAAIRVSGASTYYADSVKGRFTISRDNAKNTVYLQMNSLKPEDTAVYYCAADYQFGVIYYYWGQGTQVTVSS | low polyreactivity
34 | QVQVVESGGGLVQAGGSLLLICAASGRTFWPNAMGWYRAAPGKERELVAAINWGGGSTYYADSVKVRFTISRDNAKNAVYLQKNSLKPEDTAVYYCAKSLVPWWYKVEYDYWGQGTQVTVSS | low polyreactivity
35 | QVQLVESGGGLVQAGGSLRLSCAASGLIFGYYAMGWYRQAPGKERELVARITRRGGSTYYADSVKGRFTISRDNAKNTVYLQRNSLKPEDTAVYYCAADWYSPRISREYDYWGQGTQVTVSS | high polyreactivity
36 | QVQLVESGGGLVQAGGSLRFSCAASGFTIVGNTMGWYRQAPGKERELVASINTNGGSTYYADSVKGRFTISRDNAKNTVYLQMNSLKPEDTAVYYCAKDREDTYFEYEYDYWGQGTQVTVSS | low polyreactivity
37 | QVQLVESGGGLVQAGGSLRLSCAASGSTIRSNAMGWYRQAPGKERELVAAISRTGGRTYYADSVKGRFTISRDNAKNTVYLQMNSLKPEDTAVYYCARPDKRLEYSENYYWGQGTQVTVSS | high polyreactivity
38 | QVQLVESGGGLVQAGGSLRLSCAASGRTFGGYAMGWYRQAPGKERELVADITSSGSTTYYADSVKGRFTISRDNSKNNVYLERYSLKPEDTAVYYCNAEGYSPVLYDYWGQGTQVTVSS | low polyreactivity
39 | QVQLVESGGGLVQAGGSLRLSCAASGYIFLRNAMAWYTKAPGKERELVAAIRRTGGSTYYADSVKGRFTISRDNAKNTVYLQMNSLKPEDTAVYYCAKRSYTGYEYWGQGTQVTVSS | low polyreactivity
40 | QVQLVESGAGLVQAGGSLRLSCAASGSTLYRYAMGWYRQAPGKERELVAAISRRGDSTYYADSVKGRFTISRDNAKNTVYLQMNSLKPEDTAVYYCNTARSAGKYDYWGQGTQVTVSS | high polyreactivity
41 | QVQLVESGGGLVQAGGSLRLSCAASGFTFARYTMGWYRQAPGKERELVAAISSRGSSTYYADSVKGRFTISRDNAKNTVFLQMNSLKPEDTAVYYCAASPYDTQSLDYDYWGQGTQVTVSS | high polyreactivity
42 | QVQLVESGGGLVQAGGRLRLSCAASVSIFNPYTMGWYRQAPGKERELVAAISYRGGSTYYADSVKGRFTISRDNAKNTVYLQMNSLKREDTAVYYCAAQVRYLGYRYDYWGQGTQVTVSS | high polyreactivity
43 | QVQLQESGGGLVLAGGSLRLSCAASGNIFVYSYMGWYRQAPGKEREFVAAIGAGSTTYYADSVSRFTISRDNAKNTVYLQMNSLKPEDTAVYYCNAEITVNDDDYWGQGTQVTVSS | low polyreactivity

Reference: the nanobody polyreactivity screen of Harvey et al. (2022)
